From article PMC4254523
Each block holds one molecule with its values, some of them ahead of it.

Experiments:
Assay in all cases: SPR
[1] = target: human FcγRII (CD32), CD32B (human) (UniProt P31994)
[2] = target: human FcγRII (CD32), CD32A-131H (human) (UniProt P12318)
[3] = target: human FcγRII (CD32), CD32A-131R (human)

Chain of UniProt P31994 (P31994 43-310): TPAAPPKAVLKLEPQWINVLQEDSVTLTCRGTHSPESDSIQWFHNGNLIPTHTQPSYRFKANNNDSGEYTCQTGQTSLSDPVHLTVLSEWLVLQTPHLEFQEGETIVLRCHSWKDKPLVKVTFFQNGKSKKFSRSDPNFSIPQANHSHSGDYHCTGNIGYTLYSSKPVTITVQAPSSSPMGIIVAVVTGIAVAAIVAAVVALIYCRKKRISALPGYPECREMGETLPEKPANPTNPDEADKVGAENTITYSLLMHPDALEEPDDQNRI
Chain of UniProt P12318 (P12318 34-317): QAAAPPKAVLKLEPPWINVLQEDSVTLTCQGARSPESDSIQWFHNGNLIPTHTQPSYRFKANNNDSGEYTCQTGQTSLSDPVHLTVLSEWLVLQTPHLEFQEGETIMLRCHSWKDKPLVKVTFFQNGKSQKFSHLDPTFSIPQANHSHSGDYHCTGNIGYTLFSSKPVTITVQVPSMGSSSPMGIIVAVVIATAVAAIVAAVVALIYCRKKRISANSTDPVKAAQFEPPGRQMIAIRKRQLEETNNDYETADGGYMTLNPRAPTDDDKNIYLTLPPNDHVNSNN

Ka [3]: 71500 M⁻¹
koff [3]: 0.363 s⁻¹
kon [3]: 25900 M⁻¹ s⁻¹
B1: mouse 3F8 (IgG3) (antibody, V domains shown)
VH: QVQLKESGPGLVAPSQSLSITCTVSGFSVTNYGVHWVRQPPGKGLEWLGVIWAGGITNYNSAFMSRLSISKDNSKSQVFLKMNSLQIDDTAMYYCASRGGHYGYALDYWGQGTSVTVSS
VL: SIVMTQTPKFLLVSAGDRVTITCKASQSVSNDVTWYQQKAGQSPKLLIYSASNRYSGVPDRFTGSGYGTAFTFTISTVQAEDLAVYFCQQDYSSFGGGTKLEIK

Ka [3]: 368000 M⁻¹
koff [3]: 0.406 s⁻¹
kon [3]: 149000 M⁻¹ s⁻¹
B2: hu3F8 (IgG1) (antibody, V domains shown)
VH: QVQLVESGPGVVQPGRSLRISCAVSGFSVTNYGVHWVRQPPGKGLEWLGVIWAGGITNYNSAFMSRLTISKDNSKNTVYLQMNSLRAEDTAMYYCASRGGHYGYALDYWGQGTLVTVSS
VL: EIVMTQTPATLSVSAGERVTITCKASQSVSNDVTWYQQKPGQAPRLLIYSASNRYSGVPARFSGSGYGTEFTFTISSVQSEDFAVYFCQQDYSSFGQGTKLEIK

Continued, molecule first:

Molecule: hu3F8 (IgG1) (antibody)
Ka [1]: 83700 M⁻¹
koff [1]: 0.341 s⁻¹
kon [1]: 28600 M⁻¹ s⁻¹
Ka [2]: 631000 M⁻¹
koff [2]: 0.427 s⁻¹

Molecule: mouse 3F8 (IgG3) (antibody)
Ka [1]: 5660 M⁻¹
koff [1]: 2.03 s⁻¹
kon [1]: 11500 M⁻¹ s⁻¹
Ka [2]: 17300 M⁻¹
koff [2]: 1.1 s⁻¹
